Common to all, as to assay: IEDB peptide-MHC binding, cellular MHC/competitive/fluorescence; ≥ and ≤ were set here for values at or beyond the usual limits of such assays
Assay [1] addresses HLA-A*02:01.
Assay [2] concerns the target HLA-A*02:03.
Assay [3] addresses HLA-A*02:02.
Assay [4] addresses HLA-A*68:02.
Assay [5] deals with HLA-A*02:06.
The mark [6] stands for this setting: source organism: Vaccinia virus WR.
The mark [7] stands for this setting: source organism: Influenza A virus.
The mark [8] stands for this setting: source organism: Mammarenavirus choriomeningitidis.

Some results are limits rather than exact numbers.

As for DVEKRILNT, the IC50 in assay [1] (setting [6]) is 9.33 µM; in assay [2] (setting [6]), 6.72 µM; in assay [3] (setting [6]), 5.82 µM; in assay [4] (setting [6]) it was not below 70 µM; in assay [5] (setting [6]), not below 70 µM.
With DVGCLLTDT, the IC50 was not below 70 µM in assay [1] (setting [6]); 65.4 µM in assay [2] (setting [6]); not below 70 µM in assay [3] (setting [6]); not below 70 µM in assay [4] (setting [6]); not below 70 µM in assay [5] (setting [6]).
For the sequence DVGCLLTDTI, the IC50 in assay [1] (setting [6]) worked out at 6.84 µM; in assay [2] (setting [6]), 15.6 µM; in assay [3] (setting [6]) it was 10.7 µM; in assay [4] (setting [6]), 27.4 µM; in assay [5] (setting [6]), 10 µM.
On the same counts, the results for DVKVLAARL are 12 µM, 10.7 µM, 6.23 µM, 7.95 µM and 10 µM.
On the same counts, the results for DVNEEYTEAA are 42.4 µM, 28.8 µM, 46.3 µM, 16 µM and 59.7 µM.
On the same counts, the results for EAKTHFSTT are 27.7 µM, 25.1 µM, 36.6 µM, 13.2 µM and 55.2 µM.
EIDVSEVKT: the IC50 was not below 70 µM in assay [1] (setting [6]); not below 70 µM in assay [2] (setting [6]); 46 µM in assay [3] (setting [6]); 20 µM in assay [4] (setting [6]); not below 70 µM in assay [5] (setting [6]).
As to EIITGNKVKT, the IC50 in assay [1] (setting [6]), in assay [2] (setting [6]), in assay [3] (setting [6]), in assay [4] (setting [6]) and in assay [5] (setting [6]) was not below 70 µM each time.
ELEKCTSEI: the IC50 amounted to 24.8 µM in assay [1] (setting [6]); 56 µM in assay [2] (setting [6]); 21.1 µM in assay [3] (setting [6]); 24.6 µM in assay [4] (setting [6]); 57.8 µM in assay [5] (setting [6]).
On the same counts, the results for ELTNKKYRCM are not below 70 µM, not below 70 µM, not below 70 µM, 13.8 µM and not below 70 µM.
Consider ELTSNCTRT, for which the IC50 is 48.7 µM in assay [1] (setting [6]); not below 70 µM in assay [2] (setting [6]); not below 70 µM in assay [3] (setting [6]); not below 70 µM in assay [4] (setting [6]); 46.2 µM in assay [5] (setting [6]).
Regarding ELVMDKNHAI, the IC50 was not below 70 µM in assay [1] (setting [6]); not below 70 µM in assay [2] (setting [6]); 14.2 µM in assay [3] (setting [6]); 19.5 µM in assay [4] (setting [6]); not below 70 µM in assay [5] (setting [6]).
For EMQLKIDKLT, the IC50 in assay [1] (setting [6]) is 55.9 µM; in assay [2] (setting [6]), 6.82 µM; in assay [3] (setting [6]), 9.66 µM; in assay [4] (setting [6]), 43.1 µM; in assay [5] (setting [6]), not below 70 µM.
Consider FASADNHPKM, for which the IC50 in assay [1] (setting [6]) was not below 70 µM; in assay [2] (setting [6]) it was 47.4 µM; in assay [3] (setting [6]) it was not below 70 µM; in assay [4] (setting [6]) it was not below 70 µM; in assay [5] (setting [6]), not below 70 µM.
In the case of GANGSTAEQL, the IC50 came out at 67.6 µM in assay [1] (setting [6]); 45.3 µM in assay [2] (setting [6]); 7.28 µM in assay [3] (setting [6]); 13.3 µM in assay [4] (setting [6]); 55.2 µM in assay [5] (setting [6]).
With GIDTSNNIA, the IC50 in assay [1] (setting [6]) is 17.3 µM; in assay [2] (setting [6]), not below 70 µM; in assay [3] (setting [6]), 49.7 µM; in assay [4] (setting [6]), not below 70 µM; in assay [5] (setting [6]), 25.2 µM.
Consider GLQSSDDFA, for which the IC50 was 7.88 µM in assay [1] (setting [7]); 18.5 µM in assay [2] (setting [7]); 11.4 µM in assay [3] (setting [7]); not below 70 µM in assay [4] (setting [7]); not below 70 µM in assay [5] (setting [7]).
As for GTKGKLYIAL, the IC50 in assay [1] (setting [6]) worked out at 16.6 µM; in assay [2] (setting [6]), 7.84 µM; in assay [3] (setting [6]), 9.07 µM; in assay [4] (setting [6]) it was 7.51 µM; in assay [5] (setting [6]), 37.4 µM.
For the sequence GTMPSLTMAC, the IC50 in assay [1] (setting [8]) is 34.7 µM; in assay [2] (setting [8]) it was 16.4 µM; in assay [3] (setting [8]) it was 25.3 µM; in assay [4] (setting [8]) it was not below 70 µM; in assay [5] (setting [8]), 12.1 µM.
For the sequence GVEVRYIDI, the IC50 in assay [1] (setting [6]) is 16.4 µM; in assay [2] (setting [6]), 45.3 µM; in assay [3] (setting [6]), 12 µM; in assay [4] (setting [6]) it was not below 70 µM; in assay [5] (setting [6]) it was 10.2 µM.
On the same counts, the results for HAKYMVTDKT are 51.8 µM, 35 µM, 9.03 µM, not below 70 µM and 64.9 µM.
With IAEYIAGLKI, the IC50 in assay [1] (setting [6]) came out at 7.83 µM; in assay [2] (setting [6]), 23 µM; in assay [3] (setting [6]), 28.6 µM; in assay [4] (setting [6]) it was 5.85 µM; in assay [5] (setting [6]), 10.2 µM.
With IASAPQQLCT, the IC50 is 36.5 µM in assay [1] (setting [6]); not below 70 µM in assay [2] (setting [6]); 53.2 µM in assay [3] (setting [6]); 16.4 µM in assay [4] (setting [6]); 8.31 µM in assay [5] (setting [6]).
